The values below come from the RNAGym collection of RNA variant scans (doi:10.7554/elife.80360).

B1: Hairpin Ribozyme (parent)
chain: GUCCUCUUUCACGUGCGCGUGAAAGAGAGAAGUGAACCAGAGAAACACACGUUGUGGUAUAUUACCUGGUA

The series covers variants of B1. The experiment in a line: self-cleavage, relative activity (ratio to wild type); higher = more cleavage; co-transcriptional.
Regarding GUCAUCUUUCACGUGCGCGUGAAAGAGAGAAGUGAACCAGAGGAACACACGUUGUGGUAUAUUACCUGGUA [C4A A43G], the self-cleavage was found to be 0.0748. Consider GUCCUCUUUCACGUGCGCGUGACAGAGAGAAGUGAACCAGAGAAACACACGUGGUGGUAUAUUACCUGGUA [A23C U53G], for which the self-cleavage stood at 0.562. On to GUCCUCUUUCACGCGCGCGUGAAAGAGAGAAGUAAACCAGAGAAACACACGUUGUGGUAUAUUACCUGGUA [U14C G34A], for which the self-cleavage was determined as 0.988.

Take GUCCUCUUUCACGUGCGCGUGGAAGAGAGAAGUGAACCAGAGAAACACACGUUGUGGUCUAUUACCUGGUA [A22G A59C]: the self-cleavage is 0.122. Take GUCCUCUUUCACGUGCGCGUGAAAGAGAGAAGUGAACCAGAGAAACACAAGUUGUGGUAUAAUACCUGGUA [C50A U62A]: the self-cleavage amounted to 0.0965. As to GUCCUCUUUCACGUGCGCGUGAAAGAGAGAAGUCAACCAGAGAAACACACGUUGUGGUAUACUACCUGGUA [G34C U62C], the self-cleavage turned out to be 1.1.

For GUCCCCUUUAACGUGCGCGUGAAAGAGAGAAGUGAACCAGAGAAACACACGUUGUGGUAUAUUACCUGGUA [U5C C10A], the self-cleavage amounted to 0.427. Consider GUCCUCAUUCACGUGCGCGUGAAAGAGAGAAGAGAACCAGAGAAACACACGUUGUGGUAUAUUACCUGGUA [U7A U33A], for which the self-cleavage turned out to be 0.218. As for GUCCUCUUUCACGUGCGCGUGAAAGAGAGAAGUGAACCAGUGAAACACACGUUGUGGUAUAUUACCAGGUA [A41U U67A], the figure is 0.364; as for GUCCUCUUUCACGUGCGCGUGAACGAGAGAAGUGAACCAGAGAAACACACGUGGUGGUAUAUUACCUGGUA [A24C U53G], 0.733; as for GUCGUCUUUGACGUGCGCGUGAAAGAGAGAAGUGAACCAGAGAAACACACGUUGUGGUAUAUUACCUGGUA [C4G C10G], 0.114. With GUCCUAUUUCACGUUCGCGUGAAAGAGAGAAGUGAACCAGAGAAACACACGUUGUGGUAUAUUACCUGGUA [C6A G15U], the self-cleavage was 0.582. Turning to GUCCUCUUUGACGUGCGCGUGAAAGAGAGAAGUGAACCAGAGAAACACACGUUGUGGUAUAUUACCUGCUA [C10G G69C], the self-cleavage came out at 0.23. GUCCUCUUUCACGUGCGCGUGAAAGAGAGAAGUGAACCAGAGAAACACACGUUGCGGUAUAUUACAUGGUA [U55C C66A]: the self-cleavage worked out at 0.13. For the variant GUCCUCUUUCACGUGCGCGUGAAAGCGAGAAGUGAACCAGAGAAACACAAGUUGUGGUAUAUUACCUGGUA [A26C C50A], the self-cleavage was 0.117. Consider GUCCUCUUUCACGUGCACGUGAAAGAGAGAAGUGAACCAGAGAAACACACGUAGUGGUAUAUUACCUGGUA [G17A U53A], for which the self-cleavage amounted to 1.36. The same measure for GUCCUCUUUCACGUGCGCGUGAAAGAGAGAAGUGAGCCAGAGAAACACACGUUGUGGAAUAUUACCUGGUA [A36G U58A]: 0.836; for GUCCUCUUUCACAUGCGCGUGAAAGAGAGAAGUGAACCACAGAAACACACGUUGUGGUAUAUUACCUGGUA [G13A G40C]: 0.152; for GUCCUCUCUCACGUGCGCGUGAAAGAGAGAAGUGAACCAGUGAAACACACGUUGUGGUAUAUUACCUGGUA [U8C A41U]: 1.12. As for GUCCUCUUUCACGUGCGCGUGAAAGAGAGAAGUGAACCAGAGAAACACACGGUGUGUUAUAUUACCUGGUA [U52G G57U], the self-cleavage came out at 0.232. GUCCUCUUUCACGUGCGCGUGAAAGAGAGUAGUGAACAAGAGAAACACACGUUGUGGUAUAUUACCUGGUA [A30U C38A]: the self-cleavage was 0.0692. Regarding GUCCUCUUUCACGUGCGCGUGAAAGAGAGAAGUGAAUCAGAGAAACACACGUUGUGGUAUAUUACCUGAUA [C37U G69A], the self-cleavage was found to be 0.46. For GUCCUCUUUCACGUGCGCGUCAAAGAGAGAAGUGAACCAGAGAAACACACGUUGUGUUAUAUUACCUGGUA [G21C G57U], the self-cleavage turned out to be 0.189. For GUCCUCUUUCACGUGCGCGUGAAAGAGAGAAGUGAACCAGAGUAACACUCGUUGUGGUAUAUUACCUGGUA [A43U A49U], the self-cleavage was 0.27. The same measure for GUCCUCUUUCACGUGCGCGUGAAAGAGAGAAGAGAACCAGAGAAACACCCGUUGUGGUAUAUUACCUGGUA [U33A A49C]: 0.163; for GUCCUCUUUCACGCGCGCGUGAAAGAGAGAAGUGAACCAGAGAAACACACGUUGUGCUAUAUUACCUGGUA [U14C G57C]: 0.0473; for GUCCUCUUUCACGUGCGCGUGACAGAAAGAAGUGAACCAGAGAAACACACGUUGUGGUAUAUUACCUGGUA [A23C G27A]: 0.464. For GUCCUCUUUCACGUGCGCGUGAAAGAGAGAAGUGAACCAAAGAAACACACGUUGUGAUAUAUUACCUGGUA [G40A G57A], the self-cleavage is 0.0955. As for GUGCUCUUUCACGUGCGCGUGAAAGAGAGAAGUGAACCAGAGAAACACACGUUGUGGUAUAUUACGUGGUA [C3G C66G], the figure is 0.0857; as for GUCCUCUUUCACGUGCGCGUGAAAGAGAGAAGUGAACCAGAGAAACACACGUUGUGGUACAUUACCUUGUA [U60C G68U], 0.204; as for GUCCUCCUUCACGUGCGCGUGAAAGAGAGUAGUGAACCAGAGAAACACACGUUGUGGUAUAUUACCUGGUA [U7C A30U], 0.257.

With GUCCUCAUUCACGUGCGCGUAAAAGAGAGAAGUGAACCAGAGAAACACACGUUGUGGUAUAUUACCUGGUA [U7A G21A], the self-cleavage turned out to be 0.706. In the case of GUCCUCUUUCACGUGGGCGUGAAAGAGAGAAGUGAACCAGAGAAACACACGUUGUGGUAUAUUACCUGUUA [C16G G69U], the self-cleavage stood at 0.196.

For the variant GUCCUCUUUCACGUGCGCAUGAAAGAGAGAAGUGAACCAGAGAAACACACGUUGUGAUAUAUUACCUGGUA [G19A G57A], the self-cleavage stood at 0.152. Take GUCCUCUUUCUCGUGCGCGUGAAAGAGAGAAGUGAACCAGAGAAAUACACGUUGUGGUAUAUUACCUGGUA [A11U C46U]: the self-cleavage was 0.0973. As to GUCCUCUUUCACGUGCGCGUGAAAGAGAGAAGUGAACCAGAGAAACAGACGUUGUGGUAUACUACCUGGUA [C48G U62C], the self-cleavage turned out to be 0.139. The same measure for GUCCUCUUGCACGUGCGCGUGAAAGAGAGCAGUGAACCAGAGAAACACACGUUGUGGUAUAUUACCUGGUA [U9G A30C]: 0.206; for GUCCUCUUUCACGUGCGCGUGAAAGAGAGAAGUGAACCAGAGAAACGCACGUUGUGGUAUAUUACCUAGUA [A47G G68A]: 0.181.
